Laboratory results: patent US20190256610A1 (NATIONAL UNIVERSITY CORPORATION HOKKAIDO UNIVERSITY, published 2019)
Changes are numbered by the printed parent chain. Blank lines part the entries; values can stand above or below the binder they belong to.

Experiments:
[1] = biological target: T1, human Eva1 Y30A mutant (human, UniProt O60487 27-150, limits assumed); assay: SPR
T1 chain: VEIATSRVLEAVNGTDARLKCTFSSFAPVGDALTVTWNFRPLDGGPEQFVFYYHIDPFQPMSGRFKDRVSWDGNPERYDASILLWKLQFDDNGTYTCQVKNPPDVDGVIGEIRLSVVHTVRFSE

[2] = biological target: T2, human Eva1 mutant with glutamic acid at position 102 substituted with alanine (human, UniProt O60487 27-150, limits assumed); assay: SPR with alanine mutants
T2 construct: also called E102A
T2 chain: T1 chain with A4Y, E76A

[3] = biological target: T3, human Eva1 S96A mutant (human, UniProt O60487 27-150, limits assumed); assay: SPR with alanine mutants
T3 chain: T1 chain with A4Y, S70A

[4] = biological target: T4, human Eva1 mutant with arginine at position 103 substituted with alanine (human, UniProt O60487 27-150, limits assumed); assay: SPR with alanine mutants
T4 construct: also called R103A
T4 chain: T1 chain with A4Y, R77A

[5] = biological target: T5, human Eva1 protein (human, UniProt O60487 27-150, limits assumed); assay: SPR (Biacore), antibody captured by anti-mouse IgG, Eva1 flowed
T5 construct: Soluble analyte in the SPR work and partner in the crystal; it calls it 'the antigen, that is, the Eva1 protein'; also called human-derived Eva1 protein; hEva1
T5 sequence: T1 chain with A4Y
Text: (§1) To select hybridomas for producing antibodies having a higher antigen affinity from the 28 hybridomas, a surface plasmon resonance assay system Biacore was used to calculate the KD value and so forth of each antibody (hereinafter also referred to as “candidate antibody”). Concretely, first, an antibody capable of capturing mouse IgG was immobilized on a dextran-coated sensor chip (CMS, manufactured by GE health care). Then, this antibody captured each candidate antibody on the sensor chip. Subsequently, the antigen, that is, the Eva1 protein was flowed. Note that, in flowing the antigen, a solution of 10 mM-Tris-HCl (pH 7.5), 150 mM-NaCl, and 3 mM-EDTA (pH 8.0) was used. Moreover, as a solution for dissociating the antigen from the candidate antibody (captured candidate-antibody resuscitation solution), a 10 mM glycine solution (pH 1.7) was used. Thus, using these solutions, the binding reaction and the dissociation reaction between each candidate antibody and the antigen were detected with Biacore, and analyzed using the attached software.

[6] = biological target: T5, human Eva1 protein; assay: SPR
[7] = biological target: T6, human Eva1 Y104A mutant (human, UniProt O60487 27-150, limits assumed); assay: SPR with alanine mutants
T6 chain: T1 chain with A4Y, Y78A

[8] = biological target: T5, human Eva1 protein; assay: SPR (Biacore), as for the mouse antibodies
Text: as §1
Further, the binding reaction and the dissociation reaction between the B2E5-48 chimeric antibody and the antigen were detected with Biacore as in the case of the mouse antibodies.

[9] = biological target: T7, human Eva1 mutant (I81M) (human, UniProt O60487 27-150, limits assumed); assay: SPR
T7 construct: Human residue replaced by the mouse one
T7 chain: T1 chain with A4Y, I55M

[10] = biological target: T8, human Eva1 mutant (L68R, P72R) (human, UniProt O60487 27-150, limits assumed); assay: SPR
T8 construct: Human residues replaced by the mouse ones; also called (L68R and P72R) double mutant
T8 chain: T1 chain with A4Y, L42R, P46R

[11] = biological target: T9, human Eva1 P72R mutant (human, UniProt O60487 27-150, limits assumed); assay: SPR
T9 chain: T1 chain with A4Y, P46R

[12] = biological target: T10, human Eva1 mutant (A43V, S96V, Q85R) (human, UniProt O60487 27-150, limits assumed); assay: SPR
T10 construct: Human residues replaced by the mouse ones
T10 chain: T1 chain with A4Y, A17V, Q59R, S70V

[13] = biological target: T11, human Eva1 mutant (R33G, V34A, V134L, I135V, E137T) (human, UniProt O60487 27-150, limits assumed); assay: SPR
T11 construct: Human residues replaced by the mouse ones
T11 chain: T1 chain with A4Y, R7G, V8A, V108L, I109V, E111T

[14] = biological target: T12, human Eva1 L68R mutant (human, UniProt O60487 27-150, limits assumed); assay: SPR
T12 chain: T1 chain with A4Y, L42R

[15] = biological target: T13, mouse Eva1 protein (mouse, UniProt O70255 27-150, limits assumed); assay: SPR
T13 construct: Used in SPR; also called mouse-derived Eva1 protein; mEva1
T13 sequence: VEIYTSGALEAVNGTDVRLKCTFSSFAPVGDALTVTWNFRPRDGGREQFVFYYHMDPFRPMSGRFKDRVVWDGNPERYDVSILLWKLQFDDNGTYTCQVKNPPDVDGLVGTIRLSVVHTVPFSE

binding result [1]: no binding
fold increase of KD against wild type human Eva1 [2]: ~25 fold
binding result [3]: binds
fold increase of KD against wild type human Eva1 [4]: ~25 fold
Kd [5]: 5.83 nM
koff [5]: 0.00212 s⁻¹
kon [5]: 364000 M⁻¹ s⁻¹
B1: A5D11-10 mouse antibody (antibody, V domains shown)
VH: EVQLKESGPGLVQPSQSLSITCTVSGFSLTRYGVHWVRQSPGKGLEWLGVIWSGGSTDYNAAFISRLSISKDNSKSQVFFKMNSLQANDTAIYYCARNGYDGGYAMDYWGQGTSVTVSS
VL: DIQMTQTTSSLSASLGDRVTISCRASQDISNYLNWYQQKPDGTVKLLIYYTSRLHSGVPSRFSGSGSRIDYSLTISNLEQEDFATYFCQQSDTLPPWTFGGGTKLEIK
notes: Mouse monoclonal from a hybridoma; also called A5D11-10 antibody

binding result [9]: binds
binding result [10]: no binding
binding result [11]: no binding
binding result [12]: binds
binding result [13]: binds
binding result [14]: binds
binding result [15]: no binding
Kd [5]: 11.7 nM
koff [5]: 0.00808 s⁻¹
kon [5]: 689000 M⁻¹ s⁻¹
B4: B2E5-48 mouse antibody (antibody, mouse IgG2b, V domains shown)
VH: QVQLQQPGAELVKPGASVKLSCKASGYTFTNYWMHWVKLRPGQGFEWIGEINPTNGGTDYNEKFKRKATLTVDKSSSTAYMQLSSLTSEDSAVYYCTIYTTALDYWGQGTTLTVSS
VL: QIVLTQSPALMSASPGERVTLTCSASSSVGYMYWYQQKPGSSPKPWIYVTSNLASGVPARFSGSGSGTSYSLTISSMEAEDAATYYCQQWSSNPPTFGAGTKLELK
notes: Mouse monoclonal from a hybridoma; also called B2E5-48 antibody

Second part, the binder before the results:

B2: C3 mouse antibody (antibody, mouse IgG1, V domains shown)
VH: EVKLVESGGGLVQPGGSLKLSCAASGFTFSSYTMSWVRQTPEKRLEWVAYITTGAGRTYYPDTVKGRFTISRDNAKNTLYLQMSSLKSEDTAMYYCARHRGDYWGQGTSVTVSS
VL: SIVMTQTPKFLLVSAGDRVTITCKASQSVSNDVAWYQQKPGQSPKLLIYYASNRFTGVPDRFTGSGYGTDFTFTISTVQAEDLAVYFCQQDYSSPWTFGGGTKLEIK
notes: Mouse monoclonal from a hybridoma; also called C3 antibody
KD for human Eva1 against KD for mouse Eva1 [6]: ~0.1
binding result [7]: binds
Kd [5]: 9.1 nM
koff [5]: 0.00831 s⁻¹
kon [5]: 918000 M⁻¹ s⁻¹

B3: B2E5-48 chimeric antibody (antibody, V domains shown)
VH: B4 VH
VL: B4 VL
Kd [8]: 15.2 nM
koff [8]: 0.00747 s⁻¹
kon [8]: 490000 M⁻¹ s⁻¹
